Reference: publication PMC10164616

Molecular target: monomeric receptor binding domain from SARS-CoV-2 Spike protein, RBD (319-541)-His6 (SARS-CoV-2) (UniProt P0DTC2)
Assay: SEC

For “monomeric receptor binding domain from SARS-CoV-2 Spike protein, RBD (319-541)-His6 (from UniProt P0DTC2 319-541) (domain or fragment)”, the percent dimer (GF-HPLC, first week at 37 °C) was 14% and the stoichiometry N was 2.
